Experimental data: paper PMC5430726 (2017)

Target: T1, SLP65 peptide (Homo sapiens, UniProt Q8WV28)
T1 chain: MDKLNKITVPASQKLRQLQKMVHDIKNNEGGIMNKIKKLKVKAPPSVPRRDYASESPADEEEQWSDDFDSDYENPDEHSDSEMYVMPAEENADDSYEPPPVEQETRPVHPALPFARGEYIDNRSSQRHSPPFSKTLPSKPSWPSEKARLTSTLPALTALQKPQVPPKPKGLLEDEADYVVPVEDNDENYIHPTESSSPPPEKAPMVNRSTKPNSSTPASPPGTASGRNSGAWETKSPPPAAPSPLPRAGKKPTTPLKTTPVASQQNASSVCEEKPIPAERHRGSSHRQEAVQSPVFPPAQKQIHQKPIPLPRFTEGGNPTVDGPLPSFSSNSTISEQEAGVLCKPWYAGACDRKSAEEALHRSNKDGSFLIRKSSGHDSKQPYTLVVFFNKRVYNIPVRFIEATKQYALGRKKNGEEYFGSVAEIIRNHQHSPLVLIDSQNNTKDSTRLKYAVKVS
Test: ITC

Kd: 33.3 µM
B1: Grb2 SH3C (protein)
chain: QQPTYVQALFDFDPQEDGELGFRRGDFIHVMDNSDPNWWKGACHGQTGMFPRNYVTPVNR
modifications: Grb2 SH3C pre-bound to Vav SH3N
